# Data reported in publication PMC6020293, “In Vitro Reconstitution of Functional Type III Protein Export and Insights into Flagellar Assembly” (mBio, 2018).
# Molecular target: the molecule itself
# Experiment: co-sedimentation; purified FlgE (4 µM) transported into inverted membrane vesicles with FlgD (0.6 or 4 µM), FliH2/FliI complex, FliJ and 5 mM ATP; after proteinase K and Triton X-100 centrifuged at 150,000 x g for 30 min; supernatant and precipitate immunoblotted; hook forms on the basal body inside the vesicle
protein,measurement,value
"FlgE (natural protein, FlgE, flagellar hook protein, Salmonella; also called hook protein FlgE) MSFSQAVSGLNAAATNLDVIGNNIANSATYGFKSGTASFADMFAGSKVGLGVKVAGITQDFTDGTTTNTGRGLDVAISQNGFFRLVDSNGSVFYSRNGQFKLDENRNLVNMQGMQLTGYPATGTPPTIQQGANPAPITIPNTLMAAKSTTTASMQINLNSTDPVPSKTPFSVSDADSYNKKGTVTVYDSQGNAHDMNVYFVKTKDNEWAVYTHDSSDPAATAPTTASTTLKFNENGILESGGTVNITTGTINGATAATFSLSFLNSMQQNTGANNIVATNQNGYKPGDLVSYQINNDGTVVGNYSNEQEQVLGQIVLANFANNEGLASQGDNVWAATQASGVALLGTAGSGNFGKLTNGALEASNVDLSKELVNMIVAQRNYQSNAQTIKTQDQILNTLVNLR",binding result,binds
